Target: LgBiT-PP1α, P62136
Assay: split-luciferase kinetic trace, competition with untagged SDS22
Conditions: chain shown with the change; 10 μM competitor added at t = 22 min; value read at the last time point (about 45 min); buffer control est. 160; parent: est. 83; read off a plot

Chain of LgBiT-PP1α, P62136 (P62136 whole entry): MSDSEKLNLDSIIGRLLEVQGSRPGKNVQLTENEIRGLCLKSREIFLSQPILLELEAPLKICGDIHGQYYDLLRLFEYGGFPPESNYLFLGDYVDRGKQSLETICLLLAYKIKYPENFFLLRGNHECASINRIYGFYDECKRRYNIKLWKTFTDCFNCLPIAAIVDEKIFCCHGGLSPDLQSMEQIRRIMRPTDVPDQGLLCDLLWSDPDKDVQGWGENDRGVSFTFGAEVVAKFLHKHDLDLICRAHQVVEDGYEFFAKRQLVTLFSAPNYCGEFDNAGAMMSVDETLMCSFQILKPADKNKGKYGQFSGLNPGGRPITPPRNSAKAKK

B1: SDS22 (tag-free, purified), Q15435 E192A (protein)
chain: MAAERGAGQQQSQEMMEVDRRVESEESGDEEGKKHSSGIVADLSEQSLKDGEERGEEDPEEEHELPVDMETINLDRDAEDVDLNHYRIGKIEGFEVLKKVKTLCLRQNLIKCIENLEELQSLRELDLYDNQIKKIENLEALTELEILDISFNLLRNIEGVDKLTRLKKLFLVNNKISKIENLSNLHQLQMLALGSNRIRAIENIDTLTNLESLFLGKNKITKLQNLDALTNLTVLSMQSNRLTKIEGLQNLVNLRELYLSHNGIEVIEGLENNNKLTMLDIASNRIKKIENISHLTELQEFWMNDNLLESWSDLDELKGARSLETVYLERNPLQKDPQYRRKVMLALPSVRQIDATFVRF
  response (% of value at 22min): 150

From PMC11199634
